The target in this assay is TRAP1 from zebrafish (D. rerio), full-length mature protein (D. rerio). The experiment in a line: crystal structure.

On to “TRAP1 from zebrafish (D. rerio), full-length mature protein (natural protein)”, for which the stoichiometry N (usually the number of molecules, sites or subunits per partner or assembly) is 2.

The record behind these values is publication PMC3947485.
